Among the data in patent publication US20120258108A1 (AbbVie / Abbott, published 2012) are Kd, koff and kon values, retold here.

The chains are these.
B1: AB287 (antibody, human IgG1, kappa, V domains shown)
VH: EVTLRESGPALVKPTQTLTLTCTVSGGSISSSSYYWGWIRQPPGKGLEWIGDIYYTGSTYYNPSLKSRVTISVDTSKNQFVLTMTNMDPVDTATYYCARQALAMGGGSDKWGQGTTVTVSS
VL: DYVLTQSPDSLAVSLGERATINCSGQRLGDKYASWYQQKPGQSPKLVIYEDSKRPSGIPDRFSGSNSGDDATLTISSLQAEDVAVYYCQAWDRDTGVFGGGTKVEIKR
notes: CDR-grafted parent antibody
B2: DVD1731 (bispecific antibody, human IgG1, kappa)
heavy: not shown
light: DIQMTQSPSSLSASVGDRVTITCRASEDIYSNLAWYQQKPGKAPKLLIYDTNNLADGVPSRFSGSGSGTDFTLTISSLQPEDVATYYCQQYNNYPPTFGQGTKVEIKRTVAAPDIRMTQSPASLSASLGETVNIECSASQDISNYLNWYQQKPGKAPQVLIYFTSSLHSGVPSRFSGSGSGTQFSLKINSLQSEDVATYYCQQYSTVPWTFGGGTKLELKRTVAAPSVFIFPPSDEQLKSGTASVVCLLNNFYPREAKVQWKVDNALQSGNSQESVTEQDSKDSTYSLSSTLTLSKADYEKHKVYACEVTHQGLSSPVTKSFNRGEC
notes: DVD-Ig
B3: AB331 (antibody, human IgG1, kappa, V domains shown)
VH: QVQLQQSGAELMKPGASVKLSCKVTGGSISSSSYYWGWIKQRPGHGLEWIGDIYYTGSTYYNPSLKSKVTITVDTSSNTFYIQLISLTTEDSAIYYCARQALAMGGGSDKWGQGTLLTVSA
VL: DYLLTQSPAILSVSPGERVSFSCSGQRLGDKYASWYQQRTNGSPRLVIYEDSKRPSGIPSRFSGGNSGDDATLSINSVESEDIADYYCQAWDRDTGVFGAGTKLELKR
notes: CDR-grafted parent antibody
B4: AB289 (antibody, human IgG1, kappa, V domains shown)
VH: EVQLVQSGTEVKKPGESLKISCKASGFTFSNFPMAWVRQMPGKGLEWVATISSSDGTTYYRDSVKGQFTISRDNSFNTLFLQWSSLKASDTAMYYCARGYYNSPFAYWGQGTMVTVSS
VL: EIVMTQSPATLSVSPGERATLSCRASEDIYSNLAWYQQKPGQAPRLLIYDTNNLADDVPARFSGSGSGTEFTLTISSLQSEDFAVYYCQQYNNYPPTFGQGTRLEIKR
notes: CDR-grafted parent antibody
B5: AB290 (antibody, human IgG1, kappa, V domains shown)
VH: EVTLRESGPALVKPTQTLTLTCTASGFTFSNFPMAWVRQPPGKGLEWVATISSSDGTTYYRDSVKGRFTISRDNSKNQLVLTMTNMDPVDTATYYCARGYYNSPFAYWGQGTTVTVSS
VL: DIVMTQSPDSLAVSLGERATINCRASEDIYSNLAWYQQKPGQAPKLLIYDTNNLADGVPDRFSGSGSGTDFTLTISSLQAEDVAVYYCQQYNNYPPTFGGGTKVEIKR
notes: CDR-grafted parent antibody
B6: AB307 (antibody, human IgG1, kappa, V domains shown)
VH: EVQLLESGGGLVQPGGSLRLSCAVSGGSISSSSYYWGWIRQAPGKGLEWIGDIYYTGSTYYNPSLKSRVTISVDTSKNTFYLQMNSLRAEDTAVYYCARQALAMGGGSDKWGQGTLVTVSS
VL: EYVLTQSPGTLSLSPGERATLSCSGQRLGDKYASWYQQKPGQSPRLVIYEDSKRPSGIPDRFSGSNSGDDATLTISRLEPEDFAVFYCQAWDRDTGVFGQGTKVEIKR
notes: CDR-grafted parent antibody
B7: AB306 (antibody, human IgG1, kappa, V domains shown)
VH: EVQLVESGGGLVQPGRSLRLSCAVSGGSISSSSYYWGWIRQAPGKGLEWIGDIYYTGSTYYNPSLKSRVTISVDTAKNSFYLQMNSLRAEDTAVYYCARQALAMGGGSDKWGQGTLVTVSS
VL: DYQLTQSPSSLSASVGDRVTITCSGQRLGDKYASWYQQKPGKSPKLVIYEDSKRPSGIPSRFSGSNSGDDATLTISSLQPEDVATYYCQAWDRDTGVFGQGTKVEIKR
notes: CDR-grafted parent antibody
B8: AB299 (antibody, human IgG1, kappa, V domains shown)
VH: EVQLVESGGGLVQPGGSLRLSCAASGFTFSNFPMAWVRQAPGKGLEWVATISSSDGTTYYRDSVKGRFTISRDNSKNTLYLQMNSLRAEDTAVYYCARGYYNSPFAYWGQGTLVTVSS
VL: DIQMTQSPSSLSASVGDRVTITCRASEDIYSNLAWYQQKPGKAPKLLIYDTNNLADGVPSRFSGSGSGTDFTLTISSLQPEDFATYYCQQYNNYPPTFGQGTKVEIKR
notes: CDR-grafted parent antibody
B9: AB319 (antibody, human IgG1, kappa, V domains shown)
VH: EVQLVESGGGLVQPANSLKLSCAASGFTFSNFPMAWVRQSPKKGLEWVATISSSDGTTYYRDSVKGRFTISRDNAKNTLYLQMDSLRSEDTATYYCARGYYNSPFAYWGQGVLVTVSS
VL: DIRMTQSPASLSASLGETVNIECRASEDIYSNLAWYQQKPGKAPQLLIYDTNNLADGVPSRFSGSGSGTQFSLKINSLQSEDVATYYCQQYNNYPPTFGGGTKLELKR
notes: CDR-grafted parent antibody
B10: AB309 (antibody, human IgG1, kappa, V domains shown)
VH: EVQLVESGGGLVQPGRSLRLSCAASGFTFSNFPMAWVRQAPGKGLEWVATISSSDGTTYYRDSVKGRFTISRDNAKNSLYLQMNSLRAEDTAVYYCARGYYNSPFAYWGQGTLVTVSS
VL: DIQMTQSPSSLSASVGDRVTITCRASEDIYSNLAWYQQKPGKAPKLLIYDTNNLADGVPSRFSGSGSGTDFTLTISSLQPEDVATYYCQQYNNYPPTFGQGTKVEIKR
notes: CDR-grafted parent antibody
B11: DVD1713 (bispecific antibody, human IgG1, kappa)
heavy: not shown
light: DIVMTQSPDSLAVSLGERATINCRASEDIYSNLAWYQQKPGQAPKLLIYDTNNLADGVPDRFSGSGSGTDFTLTISSLQAEDVAVYYCQQYNNYPPTFGGGTKVEIKRTVAAPEIVMTQSPATLSVSPGERATLSCSASQDISNYLNWYQQKPGQAPRVLIYFTSSLHSDVPARFSGSGSGTEFTLTISSLQSEDFAVYYCQQYSTVPWTFGQGTRLEIKRTVAAPSVFIFPPSDEQLKSGTASVVCLLNNFYPREAKVQWKVDNALQSGNSQESVTEQDSKDSTYSLSSTLTLSKADYEKHKVYACEVTHQGLSSPVTKSFNRGEC
notes: DVD-Ig
B12: AB316 (antibody, human IgG1, kappa, V domains shown)
VH: EVQLVESGGGLVQPANSLKLSCAVSGGSISSSSYYWGWIRQSPKKGLEWIGDIYYTGSTYYNPSLKSRVTISVDTAKNTFYLQMDSLRSEDTATYYCARQALAMGGGSDKWGQGVLVTVSS
VL: DYRLTQSPASLSASLGETVNIECSGQRLGDKYASWYQQKPGKSPQLVIYEDSKRPSGIPSRFSGSNSGDQASLKINSLQSEDVATYYCQAWDRDTGVFGGGTKLELKR
notes: CDR-grafted parent antibody
B13: AB334 (antibody, human IgG1, kappa, V domains shown)
VH: QVQLQQSGAELMKPGASVKLSCKATGFTFSNFPMAWVKQRPGHGLEWVATISSSDGTTYYRDSVKGKFTITRDNSSNTLYIQLISLTTEDSAIYYCARGYYNSPFAYWGQGTLLTVSA
VL: DILMTQSPAILSVSPGERVSFSCRASEDIYSNLAWYQQRTNGAPRLLIYDTNNLADGVPSRFSGGGSGTDFTLSINSVESEDIADYYCQQYNNYPPTFGAGTKLELKR
notes: CDR-grafted parent antibody
B14: AB285 (antibody, human IgG1, kappa, V domains shown)
VH: EVTLRESGPALVKPTQTLTLTCTASGYTFTNYGMNWVRQPPGKGLEWVGWINTYTGEPTYAADFKRRFTFSLDTSKSQAVLTMTNMDPVDTATYYCAKYPHYYGSSHWYFDVWGQGTTVTVSS
VL: DIVMTQSPDSLAVSLGERATINCSASQDISNYLNWYQQKPGQAPKVLIYFTSSLHSGVPDRFSGSGSGTDFTLTISSLQAEDVAVYYCQQYSTVPWTFGGGTKVEIKR
notes: CDR-grafted parent antibody; also called VEGF (AB057)

The Kd is a measure of binding affinity in units of concentration. Broadly, the koff is the first-order rate constant of dissociation. Broadly, the kon is the rate constant with which the complex forms.

A value given as a limit tells only on which side of the number the result lay.

Chain of Recombinant Human VEGF 165 (P15692 other isoform, or with tags, fused parts or gaps limits assumed): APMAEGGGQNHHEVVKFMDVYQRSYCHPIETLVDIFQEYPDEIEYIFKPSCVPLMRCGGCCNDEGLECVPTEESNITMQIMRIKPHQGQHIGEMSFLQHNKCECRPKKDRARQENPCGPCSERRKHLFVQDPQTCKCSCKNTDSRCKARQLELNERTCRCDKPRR
Chain of Recombinant Human DLL4 (Q9NR61 27-524 limits assumed): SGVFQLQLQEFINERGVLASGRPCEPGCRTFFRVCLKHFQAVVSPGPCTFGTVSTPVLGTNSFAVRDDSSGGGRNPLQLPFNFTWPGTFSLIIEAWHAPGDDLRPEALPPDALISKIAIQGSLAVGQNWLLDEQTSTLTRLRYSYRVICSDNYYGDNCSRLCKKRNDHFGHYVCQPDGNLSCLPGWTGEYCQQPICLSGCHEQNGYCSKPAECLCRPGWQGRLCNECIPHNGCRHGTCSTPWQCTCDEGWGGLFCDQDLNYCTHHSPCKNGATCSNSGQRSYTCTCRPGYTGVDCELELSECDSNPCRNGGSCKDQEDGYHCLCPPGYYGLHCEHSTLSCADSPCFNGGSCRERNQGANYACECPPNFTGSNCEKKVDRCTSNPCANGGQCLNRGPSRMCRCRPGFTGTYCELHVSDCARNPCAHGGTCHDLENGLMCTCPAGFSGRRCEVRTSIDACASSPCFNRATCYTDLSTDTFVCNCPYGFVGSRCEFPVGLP

The target in one test is Recombinant Human DLL4 (human, UniProt Q9NR61 27-524). The test is described as follows: SPR (BIACORE). The protocol:
(§1) The BIACORE assay (Biacore, Inc, Piscataway, N.J.) determines the affinity of antibodies or DVD-Ig with kinetic measurements of on-rate and off-rate constants. Binding of antibodies or DVD-Ig to a target antigen (for example, a purified recombinant target antigen) was determined by surface plasmon resonance-based measurements with a Biacore® 1000 or 3000 instrument (Biacore® AB, Uppsala, Sweden) using running HBS-EP (10 mM HEPES [pH 7.4], 150 mM NaCl, 3 mM EDTA, and 0.005% surfactant P20) at 25° C. All chemicals were obtained from Biacore® AB (Uppsala, Sweden) or otherwise from a different source as described in the text. For example, approximately 5000 RU of goat anti-mouse IgG, (Fcγ), fragment specific polyclonal antibody (Pierce Biotechnology Inc, Rockford, Ill.) diluted in 10 mM sodium acetate (pH 4.5) is directly immobilized across a CM5 research grade biosensor chip using a standard amine coupling kit according to manufacturer's instructions and procedures at 25 μg/ml. Unreacted moieties on the biosensor surface are blocked with ethanolamine. Modified carboxymethyl dextran surface in flowcell 2 and 4 is used as a reaction surface. Unmodified carboxymethyl dextran without goat anti-mouse IgG in flow cell 1 and 3 is used as the reference surface. For kinetic analysis, rate equations derived from the 1:1 Langmuir binding model are fitted simultaneously to association and dissociation phases of all eight injections (using global fit analysis) with the use of Biaevaluation 4.0.1 software. Purified antibodies or DVD-Ig are diluted in HEPES-buffered saline for capture across goat anti-mouse IgG specific reaction surfaces. Antibodies or DVD-Ig to be captured as a ligand (25 μg/ml) are injected over reaction matrices at a flow rate of 5 μl/min. The association and dissociation rate constants, kₒₙ (M⁻¹ s⁻¹) and koff (s⁻¹) are determined under a continuous flow rate of 25 μl/min. Rate constants are derived by making kinetic binding measurements at different antigen concentrations ranging from 10-200 nM. The equilibrium dissociation constant (M) of the reaction between antibodies or DVD-Igs and the target antigen is then calculated from the kinetic rate constants by the following formula: KD=koff/kₒₙ. Binding is recorded as a function of time and kinetic rate constants are calculated.
For the molecule B1, the equilibrium dissociation constant (Kd) was 1.5 nM, the koff is 0.00012 s⁻¹ and the association rate constant (kon) stood at 84000 M⁻¹ s⁻¹.

For B2, the Kd is 22 nM, the dissociation rate constant (koff) worked out at 0.0028 s⁻¹ and the association rate constant (kon) is 120000 M⁻¹ s⁻¹.

On to B3, for which the Kd was 2.3 nM, the koff worked out at 0.00018 s⁻¹ and the association rate constant (kon) was 76000 M⁻¹ s⁻¹.

As to B4, the dissociation constant (Kd) is 21 nM, the koff worked out at 0.0055 s⁻¹ and the kon came to 260000 M⁻¹ s⁻¹.

Take B5: the equilibrium dissociation constant (Kd) was 20 nM, the dissociation rate constant (koff) was determined as 0.0039 s⁻¹ and the kon stood at 200000 M⁻¹ s⁻¹.

For the molecule B6, the dissociation constant Kd amounted to 1 nM, the dissociation rate constant (koff) came to 9.5e-05 s⁻¹ and the kon is 93000 M⁻¹ s⁻¹.

On to B7, for which the equilibrium dissociation constant (Kd) is 2.2 nM, the koff was 0.00015 s⁻¹ and the kon turned out to be 68000 M⁻¹ s⁻¹.

On to B8, for which the dissociation constant Kd stood at 24 nM, the dissociation rate constant (koff) stood at 0.0039 s⁻¹ and the on-rate constant (kon) was determined as 160000 M⁻¹ s⁻¹.

As for B9, the Kd was found to be 20 nM, the koff was 0.002 s⁻¹ and the on-rate (kon) worked out at 100000 M⁻¹ s⁻¹.

Regarding B10, the Kd came out at 22 nM, the koff came out at 0.0028 s⁻¹ and the kon was 130000 M⁻¹ s⁻¹.

As to B11, the Kd is 31 nM, the koff stood at 0.0029 s⁻¹ and the kon stood at 92000 M⁻¹ s⁻¹.

On to B12, for which the Kd was 1 nM, the dissociation rate constant (koff) turned out to be 9.2e-05 s⁻¹ and the on-rate constant (kon) worked out at 89000 M⁻¹ s⁻¹.

Take B13: the dissociation constant (Kd) was 14 nM, the dissociation rate constant (koff) was found to be 0.0055 s⁻¹ and the association rate constant (kon) amounted to 390000 M⁻¹ s⁻¹.

In a further test the target is Recombinant Human VEGF 165 (human, UniProt P15692-4 27-191). The experiment in a line: SPR (BIACORE). Here is the method:
as §1
(SPR reads the build-up and loss of mass on a sensor chip optically.)
For the molecule B14, the Kd was less than 0.001 nM, the koff is less than 1e-06 s⁻¹ and the kon came to 1e+06 M⁻¹ s⁻¹.

As to B2, the equilibrium dissociation constant (Kd) amounted to 0.5 nM, the koff came out at 4.5e-05 s⁻¹ and the association rate constant (kon) was 89000 M⁻¹ s⁻¹.

In the case of B11, the Kd amounted to 0.1 nM, the koff is 7.7e-05 s⁻¹ and the kon amounted to 760000 M⁻¹ s⁻¹.
